From patent US20050282740

Biological target: GST-WW-domain of Pin1 (UniProt Q13526)
Sequence (Q13526 1-54): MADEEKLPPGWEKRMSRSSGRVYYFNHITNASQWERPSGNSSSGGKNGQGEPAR

Cdc25C synthesized in vitro and phosphorylated by Xenopus mitotic extracts
dephosphorylation of precipitated Cdc25C by CIP: CIP failed to dephosphorylate Cdc25C
